Measured values taken from PMC3824618.

Biological target: T1, wild-type human cystathionine β-synthase, HIS-tagged, expressed in HEK-293 cells (human), P35520
T1 chain: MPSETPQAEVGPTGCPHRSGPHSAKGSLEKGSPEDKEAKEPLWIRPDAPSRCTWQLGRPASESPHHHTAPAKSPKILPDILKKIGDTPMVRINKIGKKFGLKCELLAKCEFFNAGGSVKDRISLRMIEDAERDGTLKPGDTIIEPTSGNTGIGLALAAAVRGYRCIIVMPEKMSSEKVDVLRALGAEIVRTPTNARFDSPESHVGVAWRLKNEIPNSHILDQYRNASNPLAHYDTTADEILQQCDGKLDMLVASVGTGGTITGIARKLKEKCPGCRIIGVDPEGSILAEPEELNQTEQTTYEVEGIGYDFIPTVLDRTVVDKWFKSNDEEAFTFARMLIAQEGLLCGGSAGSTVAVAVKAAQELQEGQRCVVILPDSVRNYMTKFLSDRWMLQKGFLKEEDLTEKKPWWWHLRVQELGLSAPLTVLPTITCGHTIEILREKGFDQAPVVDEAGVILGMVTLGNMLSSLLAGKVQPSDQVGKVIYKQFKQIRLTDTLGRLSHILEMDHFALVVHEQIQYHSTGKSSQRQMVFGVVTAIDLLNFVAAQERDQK
Test: native gel or EMSA
Conditions: remark: other sources report otherwise

stoichiometry N: 4
B1: wild-type human cystathionine β-synthase, HIS-tagged, expressed in HEK-293 cells, P35520 1-551 (enzyme)
chain: MPSETPQAEVGPTGCPHRSGPHSAKGSLEKGSPEDKEAKEPLWIRPDAPSRCTWQLGRPASESPHHHTAPAKSPKILPDILKKIGDTPMVRINKIGKKFGLKCELLAKCEFFNAGGSVKDRISLRMIEDAERDGTLKPGDTIIEPTSGNTGIGLALAAAVRGYRCIIVMPEKMSSEKVDVLRALGAEIVRTPTNARFDSPESHVGVAWRLKNEIPNSHILDQYRNASNPLAHYDTTADEILQQCDGKLDMLVASVGTGGTITGIARKLKEKCPGCRIIGVDPEGSILAEPEELNQTEQTTYEVEGIGYDFIPTVLDRTVVDKWFKSNDEEAFTFARMLIAQEGLLCGGSAGSTVAVAVKAAQELQEGQRCVVILPDSVRNYMTKFLSDRWMLQKGFLKEEDLTEKKPWWWHLRVQELGLSAPLTVLPTITCGHTIEILREKGFDQAPVVDEAGVILGMVTLGNMLSSLLAGKVQPSDQVGKVIYKQFKQIRLTDTLGRLSHILEMDHFALVVHEQIQYHSTGKSSQRQMVFGVVTAIDLLNFVAAQERDQK
